These results are taken from patent publication US20050084844A1.

For assay [1], the target named is endogenous latent TGFβ secreted by B9F cells (latent TGFβ1, 2 and 3) (rat). The assay can be described thus: cell-based or functional assay.
Assay [2] deals with active TGFβ generated by positive B9F clones (rat). The assay can be described thus: cell-based or functional assay.

Values joined by “and” are separate entries in the source; they are usually repeats but may differ in a detail not shown here. Identical values can stand only once.

As to “integrin ανβ6 on B9F reporter cells (retrovirally expressed β6-integrin subunit paired with the endogenously expressed αν-integrin subunit) (receptor)”, in assay [1], the rightward shift in GFP fluorescence of B9F reporter cells (percent of cells in the bright gate) is 48%. On the same count and under the same terms, in the case of “integrin ανβ8 on B9F reporter cells (retrovirally expressed β8-integrin subunit paired with the endogenously expressed αν-integrin subunit) (receptor)” it was 25%. As to “Recombinant simian TGFβ1 LAP (from UniProt P09533 30-278)”, the luciferase activity of TMLC co-culture with positive clones, with against without the TGFβ inhibitor (LAP) (fraction of the value without inhibitor) in assay [2] was 0.33 and 0.5.
